Consider 4 molecules from patent publication US8835136B2, “Engineered amine dehydrogenases and methods of use thereof” (Georgia Tech Research Corporation, priority 2012, dated 2014).

The term solubility denotes the dissolved amount per volume that the medium holds. By kcat is commonly meant the number of substrate molecules converted per active site and unit of time at saturation. For orientation: Km means the concentration of substrate that gives half-maximal velocity.

Values after ≈ are worked out from the molar mass of the structure shown.

Data set [1] in a line: Solubility of PFPA substrate. Type of data set: physicochemical. Here is the method:
The enzyme tolerates acetone concentrations as high as 20% v/v. The PFPA substrate has a limited solubility of 40 mM in aqueous media, but was increased to 60 mM with the addition of acetone.

Data set [2] can be described thus: Reductive amination, spectrophotometric assay at 340 nm. Type of data set: biochemical. The conditions noted are these: for Reductive amination specific activity: maximum specific activity, nonlinear fit. Here is the method:
(§1) Activity of purified proteins was measured using a spectrophotometric assay at 340 nm, corresponding to the cofactor nicotinamide adenine dinucleotide (NADH, ε340=6220 M^−1 cm^−1) (Dawson, et al., Clarendon Press, (1989). For reductive amination, reactions took place in 500 mM NH4Cl/NH4OH at pH 9.6, with 200 μM NADH and 20 mM of the ketone substrate, unless otherwise specified. For oxidative deamination, reactions took place in 0.1 M NaHCO3/Na2CO3 buffer at pH 10.0, with 1 mM NAD+ with 10 mM of the amine substrate of interest. All reactions were performed at 25° C. unless otherwise specified. Enzyme was added in 10 μL aliquots in dilute concentrations. Enzyme concentrations varied upon activity levels with the substrate present, but were dilute enough to ensure linear conversion kinetics over the analytical time period (10 min to 30 min). Specific activities were then calculated from the stoichiometric conversion of cofactor as determine by the change in absorbance at 340 nm over time.

The nature of data set [3]: Oxidative deamination, spectrophotometric assay at 340 nm. The note with it: for Oxidative deamination specific activity: maximum specific activity, 1,3-DMBA. Type of data set: biochemical. The procedure:
as §1, with “For oxidative deamination, reactions took place in 0.1 M NaHCO3/Na2CO3 buffer at pH 10.0, with 1 mM NAD+ with 10 mM of the amine substrate of interest.” left out

Data set [4] can be described thus: Native leucine dehydrogenase activity. Type of data set: biochemical. Here is the method: as §1
A short description of data set [5]: Oxidative deamination, spectrophotometric assay at 340 nm. Type of data set: biochemical. The procedure:
as §1, with “For oxidative deamination, reactions took place in 0.1 M NaHCO3/Na2CO3 buffer at pH 10.0, with 1 mM NAD+ with 10 mM of the amine substrate of interest.” left out
The enantioselectivity was initially estimated by measuring the deamination activity toward individual enantiomers of methylbenzylamine (MBA). […] A preference towards (R)-MBA over the corresponding (S)-enantiomer was evident in the discrepancies between the deamination activities of 0.586 U mg^−1 and 0.002 U mg^−1, respectively. These preliminary results were corroborated through direct measurement of the enantioselectivity of the MIBK amination in producing chiral 1,3-DMBA.

The nature of data set [6]: Conversion with GDH cofactor recycle system (LeuDH-AmDH). The data set is classed as biochemical. The conditions noted are these: 10 mM MIBK. The procedure:
Initial rate kinetic measurements are used primarily in the determination of kinetic parameters to avoid second-order effects and product inhibition. The enzyme's ability to reach complete substrate conversion cannot be determined from these initial rate experiments, and was instead evaluated by chiral GC of overnight conversion with a GDH recycle system. The GDH regenerates the expensive NADH by redox reaction of NAD+ and inexpensive glucose (FIG. 1). In 1.5 mL reactions, replicates containing 10 mM MIBK substrate was mixed with an excess of 12 mM glucose, 10 U GDH, and a catalytic amount of NADH (200 μM). Histag purified K67S/E113V/N261L/V290C LeuDH-AmDH (0.13 mg) was added to each reaction and allowed to convert for 18 hours. An additional 0.13 mg of enzyme was then added and allowed to react for 10 hours to achieve the maximum conversion. One mL aliquots of the final reaction media were adjusted to pH>13 by the addition of 100 μL of 10 N NaOH and derivatized in toluene according to the TFAA protocol.
The product amine was additionally confirmed through ^1H NMR. A 175 mL-scale amination reaction with GDH cofactor recycle was performed similar to previous conversion experiments. […] Following separation, the solvent was removed through rotovap distillation, and the purified product was analyzed by ^1H NMR. […]

The nature of data set [7]: Amination of phenylpyruvate. The data set is classed as biochemical. The note with it: 500 mM NH4Cl/NH4OH pH 9.6, 200 μM NADH, 5 mM phenylpyruvate, 25° C. Here is the method: (§2) The wild-type PheDH from B. badius was characterized to ensure proper expression and folding prior to mutation. […] KM values were determined for the substrates when possible, and corresponded well to those values found in literature (110). Additionally, the K1 value of ammonia was determined to be 5.0 M. The KM of phenylpyruvate could not be determined due to its high absorbance at the analytical wavelength. The wild-type enzyme was determined to be properly folded and active.

The next data set is described as follows: Deamination of L-Phe. The data set is classed as biochemical. The conditions noted are these: 0.1 M Glycine pH 10.0, 1 mM NAD+, 20 mM L-Phe, 25° C. Here is the method: as §2
Data set [8] can be described thus: Kinetic parameters for ammonia (PheDH / PheDH-AmDH). Type of data set: biochemical. The note with it: amination of phenylpyruvate; read-out: KM, NH3. The procedure: as §2
Kinetic parameters, kcat and KM, were determined for the enzyme and each of the reductive amination substrates; respectively. […] The kcat value for this AmDH enzyme with all three substrates saturated in aqueous NH4Cl/NH4OH buffer at pH 9.6 was 6.85 s^−1 at 25° C. This represents a near 15-fold enhancement above the maximum observed kcat of 0.46 s^−1 of the previously developed LeuDH-AmDH.

The mark [9] stands for this setting: purified LeuDH library 10/11 hits.

`CC(=O)Cc1ccc(F)cc1` [PFPA, para-fluoro phenyl acetone]: the solubility in data set [1] (aqueous media) was 40 mM (≈ 6090 µg/mL); in data set [1] (aqueous media with added acetone, aqueous with cosolvent or surfactant or cyclodextrin, with the addition of acetone), 60 mM (≈ 9130 µg/mL).

B1: WT: LeuDH from Bacillus stearothermophilus, SEQ ID NO:4 (protein, listed as Bacillus stearothermophilus)
chain: ELFQYMEKYDYEQVLFCQDKESGLKAIIVIHDTTLGPALGGTRMWMYNSEEEALEDALRLARGMTYKNAAAGLNLGGGKTVIIGDPRKDKNEAMFRAFGRFIQGLNGRYITAEDVGTTVADMDIIYQETDYVTGISPEFGSSGNPSPATAYGVYRGMKAAAKEAFGSDSLEGKVVAVQGVGNVAYHLCRHLHEEGAKLIVTDINKEAVARAVEEFGAKAVDPNDIYGVECDIFAPCALGGIINDQTIPQLKAKVIAGSADNQLKEPRHGDMIHEMGIVYAPDYVINAGGVINVADELYGYNRERAMKKIEQIYDNIEKVFAIAKRDNIPTYVAADRMAEERIETMRKARSQFLQNGHHILSRRRAR
B1: in [2] (MIBK), the “activity for reductive amination” value is on record as “no measurable activity” and the “Reductive amination specific activity” value is “n.m.^[c]”. Further, the “Oxidative deamination specific activity” value in data set [3] was “n.m”. Moreover, the “native activity toward 1-Leu” value in [4] was 112 U mg^−1.

B2: K67S/E113V/N261L/V290C: LeuDH-AmDH quadruple variant, SEQ ID NO:10, library 11 (protein)
chain: ELFQYMEKYDYEQVLFCQDKESGLKAIIVIHDTTLGPALGGTRMWMYNSEEEALEDALRLARGSTYMNAAAGLNLGGGKTVIIGDPRKDKNEAMFRAFGRFIQGLNGRYITAVDVGTTVADMDIIYQETDYVTGISPEFGSSGNPSPATAYGVYRGMKAAAKEAFGSDSLEGKVVAVQGVGNVAYHLCRHLHEEGAKLIVTDINKEAVARAVEEFGAKAVDPNDIYGVECDIFAPCALGGIINDQTIPQLKAKVIAGSADLQLKEPRHGDMIHEMGIVYAPDYVINAGGCINVADELYGYNRERAMKKIEQIYDNIEKVFAIAKRDNIPTYVAADRMAEERIETMRKARSQFLQNGHHILSRRRAR
For the molecule B2, in data set [2] (20 mM substrate), the “Specific activity, acetophenone” value worked out at 58.8 mU mg^−1 protein; the “Specific activity, cyclohexanone” value is recorded as 123.4 mU mg^−1 protein; the “Specific activity, ethyl pyruvate” value amounted to 13.2 mU mg^−1 protein; the “Specific activity, ethyl-3-oxohexanoate” value is 14.0 mU mg^−1 protein. Moreover, the “Specific activity, methyl acetoacetate” value in [2] (20 mM substrate) turned out to be 4.5 mU mg^−1 protein. Further, the kcat in [2] (MIBK amination) was determined as 0.46 s⁻¹. The Km in [2] (MIBK substrate, read-out: KM (reductive amination)) was 15.1 mM. Moreover, in data set [2] (MIBK, non-linear Michaelis-Menten fit), the amination activity worked out at 0.69 U mg^−1. Besides, the “Reductive amination specific activity” value in data set [2] (MIBK) was 0.690 U mg^−1 protein. Also, in data set [2] (setting [9]), the “Amination of MIBK Vmax” value came out at 0.331 ± 0.07. The Km in data set [2] (purified LeuDH library 10/11 hits, read-out: Amination of MIBK KM) was 18.7 ± 11.7 mM. Further, the “Specific activity, cyclohexylamine” value in data set [3] (20 mM substrate) came to 56.0 mU mg^−1 protein. Besides, the “Specific activity, (R/S)-MBA” value in data set [3] (40 mM racemic, 20 mM of each enantiomer) came to 784.6 mU mg^−1 protein. For the same molecule, the Km in data set [3] (1,3-DMBA substrate, read-out: KM (oxidative deamination)) was found to be 57.5 mM. Besides, the “Oxidative deamination specific activity” value in data set [3] is on record as 2.64 U mg^−1 protein. The “Deamination of 1,3-DMBA Vmax” value in [3] (setting [9]) was found to be 2.350 ± 0.26. For the same molecule, the Michaelis constant (Km) in data set [3] (purified LeuDH library 10/11 hits, read-out: Deamination of 1,3-DMBA KM) amounted to 41.9 ± 9.7 mM. In data set [5], the “deamination activity toward (R)-MBA” value is 0.586 U mg^−1 and the “deamination activity toward (S)-MBA” value is 0.002 U mg^−1. In [5] (20 mM substrate), the “Specific activity, (R)-MBA” value came to 586.3 mU mg^−1 protein and the “Specific activity, (S)-MBA” value turned out to be 1.6 mU mg^−1 protein. For the same molecule, the average substrate conversion in [6] (1.5 mL, 18 h + 10 h, chiral GC) was found to be 92.5%. The molecule also had a conversion in data set [6] (175 mL-scale, 48 hours) of 84.7%.

B3: Wild Type: PheDH from Bacillus badius, SEQ ID NO:1 (protein, listed as Bacillus badius)
chain: SLVEKTSIIKDFTLFEKMSEHEQVVFCNDPATGLRAIIAIHDTTLGPALGGCRMQPYNSVEEALEDALRLSKGMTYKCAASDVDFGGGKAVIIGDPQKDKSPELFRAFGQFVDSLGGRFYTGTDMGTNMEDFIHAMKETNCIVGVPEAYGGGGDSSIPTAMGVLYGIKATNKMLFGKDDLGGVTYAIQGLGKVGYKVAEGLLEEGAHLFVTDINEQTLEAIQEKAKTTSGSVTVVASDEIYSQEADVFVPCAFGGVVNDETMKQFKVKAIAGSANNQLLTEDHGRHLADKGILYAPDYIVNSGGLIQVADELYEVNKERVLAKTKHIYDAILEVYQQAELDQITTMEAANRMCEQRMAARGRRNSFFTSSVKPKWDIRN
For the molecule B3, the “Amination Activity 40 mM MIBK, kcat” value in data set [2] (500 mM NH4Cl/NH4OH pH 9.6, 200 μM NADH, 25° C.) is reported as “—No Activity—”. Moreover, the “Deamination Activity 40 mM 1,3-DMBA, kcat” value in [3] (0.1M Glycine pH 10.0, 1 mM NAD+, 25° C.) was “—No Activity—”. In addition, in data set [7], the “activity in the amination of phenylpyruvate” value was “greater than 257 U mg^−1”. In the data set “Deamination of L-Phe”, the “activity in the deamination of L-Phe” value was 39.5 U mg^−1. Moreover, the Km in [8] was 64.5 mM.
